Experiments:
[1] = biological target: T1, MMP-1 (Homo sapiens, UniProt P03956); conditions: MMP-13 to MMP-1; cited from earlier work
T1 sequence (P03956 100-469): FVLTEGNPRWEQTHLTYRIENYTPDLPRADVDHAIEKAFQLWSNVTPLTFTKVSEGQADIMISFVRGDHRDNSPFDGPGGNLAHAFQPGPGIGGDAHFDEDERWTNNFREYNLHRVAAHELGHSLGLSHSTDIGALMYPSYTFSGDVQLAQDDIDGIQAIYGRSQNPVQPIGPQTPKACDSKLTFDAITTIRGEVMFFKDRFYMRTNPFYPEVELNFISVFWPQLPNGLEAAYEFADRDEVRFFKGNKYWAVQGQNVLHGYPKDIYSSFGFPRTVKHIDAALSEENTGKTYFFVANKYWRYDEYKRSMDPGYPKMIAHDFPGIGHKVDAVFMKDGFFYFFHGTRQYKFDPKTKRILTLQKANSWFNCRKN

[2] = biological target: MMP-9 (Homo sapiens, UniProt P14780); conditions: MMP-13 to MMP-9; cited from earlier work
Sequence of MMP-9 (P14780 94-707, species assumed): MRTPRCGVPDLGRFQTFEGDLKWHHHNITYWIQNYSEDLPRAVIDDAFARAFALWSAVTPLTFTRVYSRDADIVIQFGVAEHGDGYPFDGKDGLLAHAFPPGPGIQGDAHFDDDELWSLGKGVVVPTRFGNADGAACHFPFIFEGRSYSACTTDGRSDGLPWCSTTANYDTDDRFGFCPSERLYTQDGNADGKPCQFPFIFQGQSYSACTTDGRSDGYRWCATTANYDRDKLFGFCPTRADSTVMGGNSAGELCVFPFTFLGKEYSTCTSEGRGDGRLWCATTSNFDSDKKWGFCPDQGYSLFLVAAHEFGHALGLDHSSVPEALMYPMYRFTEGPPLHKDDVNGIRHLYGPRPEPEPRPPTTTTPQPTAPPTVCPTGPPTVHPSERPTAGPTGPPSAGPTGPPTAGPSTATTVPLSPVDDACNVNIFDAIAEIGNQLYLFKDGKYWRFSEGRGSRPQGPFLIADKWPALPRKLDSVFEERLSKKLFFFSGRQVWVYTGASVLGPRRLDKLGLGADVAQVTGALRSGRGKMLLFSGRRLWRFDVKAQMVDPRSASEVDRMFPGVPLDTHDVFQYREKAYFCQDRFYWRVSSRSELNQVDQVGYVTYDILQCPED

[3] = biological target: MMP-3 (Homo sapiens, UniProt P08254); conditions: MMP-13 to MMP-3; cited from earlier work
Sequence of MMP-3 (P08254 100-477, species assumed): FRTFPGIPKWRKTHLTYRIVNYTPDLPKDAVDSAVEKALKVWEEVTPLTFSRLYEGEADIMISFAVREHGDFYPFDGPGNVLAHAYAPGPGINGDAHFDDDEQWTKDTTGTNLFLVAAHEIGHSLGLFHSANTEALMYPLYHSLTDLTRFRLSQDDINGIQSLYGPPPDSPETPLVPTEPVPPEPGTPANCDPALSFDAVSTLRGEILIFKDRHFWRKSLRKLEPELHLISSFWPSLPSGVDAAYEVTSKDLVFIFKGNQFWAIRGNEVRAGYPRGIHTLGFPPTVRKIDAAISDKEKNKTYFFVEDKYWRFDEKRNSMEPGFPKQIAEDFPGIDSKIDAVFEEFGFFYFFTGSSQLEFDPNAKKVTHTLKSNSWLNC

[4] = tested on: neural stem cells (NSCs) from adult hippocampus; assay: NSC adhesion and proliferation on peptide-modified IPNs (CyQUANT); assay type: cell-based, rat
Experimental: Neural stem cells were isolated from the hippocampi of adult female Fischer 344 rats as previously described (Lai, K., et al., Nat Neurosci, 6(1):21-7 (2003)). Cells at (200-10,000 cells/well) were seeded onto peptide-modified IPNs and laminin-modified culture wells and incubated (37° C., 5% CO2) in serum-free media consisting of DMEM/Hams F-12 medium with N−2 supplement. These media conditions were supplemented with various soluble factors to modulate cell behavior: 20 ng·ml^−1 basic fibroblast growth factor (bFGF) for cell proliferation or 1 μM retinoic acid with 5 μM forskolin for neuronal differentiation. Wells were rinsed every 48 hrs with fresh media.
NSCs isolated from the adult hippocampus were seeded onto bsp-RGD(15)-modified IPNs at various cell densities over four orders of magnitude. […] 18(2):337-45 (2002)). Such spheres provide less precise control over the cellular microenvironment, due in part to spatial gradients in signaling and nutrients and internal necrosis.
For quantitative assays of proliferation, the NSCs were seeded at 1000 cells per well on various surfaces and grown for 3-6 days, and cell number was determined using a fluorescent dye that binds to nucleic acids, CyQUANT (Molecular Probes, Eugene, Oreg.). Briefly, cells grown on a particular surface for a fixed duration were washed once with phosphate buffer saline and lysed in the manufacturer's buffer with dye. Next, the fluorescent intensity of resulting solution was measured. […] Any increase in cell number on the negative control bsp-RGE(15)-modified IPNs reflected growth of weakly adherent neurospheres (FIG. 2d-e). About 10 pmol·cm^−2 bsp-RGD(15) was needed to support proliferation of NSCs, corresponding to ˜10^6 ligands per cell for the 10 μm diameter cells.

[5] = tested on: neural stem cells (NSCs) from adult hippocampus; assay: NSC phenotype and differentiation on peptide-modified IPNs (qRT-PCR, immunofluorescent staining); assay type: cell-based, rat; conditions: 1 μM retinoic acid with 5 μM forskolin
Experimental: Neural stem cells were isolated from the hippocampi of adult female Fischer 344 rats as previously described (Lai, K., et al., Nat Neurosci, 6(1):21-7 (2003)). Cells at (200-10,000 cells/well) were seeded onto peptide-modified IPNs and laminin-modified culture wells and incubated (37° C., 5% CO2) in serum-free media consisting of DMEM/Hams F-12 medium with N-2 supplement. These media conditions were supplemented with various soluble factors to modulate cell behavior: 20 ng·ml^-1 basic fibroblast growth factor (bFGF) for cell proliferation or 1 μM retinoic acid with 5 μM forskolin for neuronal differentiation. Wells were rinsed every 48 hrs with fresh media. […] To assay phenotype, two methods were used: quantitative real time PCR (qRT-PCR) and immunofluorescent staining. […] Quantitative real time PCR was used as a complementary technique to accurately quantify specific cDNA concentrations in various cDNA samples from cells grown on IPNs and laminin (using a Bio-Rad Laboratories iCycler). GFAP expression levels were quantified as a marker for astrocytic differentiation of the progenitor cells. β-Tubulin-III was used as a marker for neurons. […] The plasmids were linearized by restriction digest and quantified by absorbance, and tenfold serial dilutions from 1 ng/μL to 10^-9 ng/μL were prepared to generate a standard curve. […]

[6] = biological target: αvβ3 integrin (Homo sapiens, UniProt P05106+P06756); conditions: high affinity; read-out: IC50, αvβ3 integrin binding; cited from earlier work
Sequence of αvβ3 integrin (P06756 31-889 limits assumed): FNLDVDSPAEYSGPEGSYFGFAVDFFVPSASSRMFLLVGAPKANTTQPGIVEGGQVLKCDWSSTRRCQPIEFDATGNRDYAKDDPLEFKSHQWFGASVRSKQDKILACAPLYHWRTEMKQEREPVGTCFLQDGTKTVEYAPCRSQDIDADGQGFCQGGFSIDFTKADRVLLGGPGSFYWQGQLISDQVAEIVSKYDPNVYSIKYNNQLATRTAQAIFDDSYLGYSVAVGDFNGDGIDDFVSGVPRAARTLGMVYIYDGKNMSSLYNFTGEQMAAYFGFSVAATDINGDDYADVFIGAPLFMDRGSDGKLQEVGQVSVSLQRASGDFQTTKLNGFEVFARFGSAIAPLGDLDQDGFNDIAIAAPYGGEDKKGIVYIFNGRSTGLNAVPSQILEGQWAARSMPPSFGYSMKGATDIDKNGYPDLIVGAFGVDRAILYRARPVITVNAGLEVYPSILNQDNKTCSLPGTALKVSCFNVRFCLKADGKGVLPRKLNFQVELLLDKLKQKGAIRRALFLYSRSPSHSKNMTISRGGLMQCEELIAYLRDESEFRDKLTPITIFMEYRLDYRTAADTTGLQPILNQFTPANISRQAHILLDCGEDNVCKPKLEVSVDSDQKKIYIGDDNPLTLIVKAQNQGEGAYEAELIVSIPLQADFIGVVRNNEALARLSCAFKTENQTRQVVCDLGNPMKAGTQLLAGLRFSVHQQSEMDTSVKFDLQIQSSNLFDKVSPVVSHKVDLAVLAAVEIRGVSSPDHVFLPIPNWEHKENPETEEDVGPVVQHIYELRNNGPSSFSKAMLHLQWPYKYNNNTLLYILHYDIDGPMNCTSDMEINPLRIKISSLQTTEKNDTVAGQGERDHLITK
Sequence of αvβ3 integrin (P06756 891-1048 partner limits assumed): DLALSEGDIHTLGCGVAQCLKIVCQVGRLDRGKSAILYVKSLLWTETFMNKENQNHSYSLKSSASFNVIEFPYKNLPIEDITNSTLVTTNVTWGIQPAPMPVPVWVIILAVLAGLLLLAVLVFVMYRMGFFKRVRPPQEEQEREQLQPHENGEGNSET
Sequence of αvβ3 integrin (P05106 27-788): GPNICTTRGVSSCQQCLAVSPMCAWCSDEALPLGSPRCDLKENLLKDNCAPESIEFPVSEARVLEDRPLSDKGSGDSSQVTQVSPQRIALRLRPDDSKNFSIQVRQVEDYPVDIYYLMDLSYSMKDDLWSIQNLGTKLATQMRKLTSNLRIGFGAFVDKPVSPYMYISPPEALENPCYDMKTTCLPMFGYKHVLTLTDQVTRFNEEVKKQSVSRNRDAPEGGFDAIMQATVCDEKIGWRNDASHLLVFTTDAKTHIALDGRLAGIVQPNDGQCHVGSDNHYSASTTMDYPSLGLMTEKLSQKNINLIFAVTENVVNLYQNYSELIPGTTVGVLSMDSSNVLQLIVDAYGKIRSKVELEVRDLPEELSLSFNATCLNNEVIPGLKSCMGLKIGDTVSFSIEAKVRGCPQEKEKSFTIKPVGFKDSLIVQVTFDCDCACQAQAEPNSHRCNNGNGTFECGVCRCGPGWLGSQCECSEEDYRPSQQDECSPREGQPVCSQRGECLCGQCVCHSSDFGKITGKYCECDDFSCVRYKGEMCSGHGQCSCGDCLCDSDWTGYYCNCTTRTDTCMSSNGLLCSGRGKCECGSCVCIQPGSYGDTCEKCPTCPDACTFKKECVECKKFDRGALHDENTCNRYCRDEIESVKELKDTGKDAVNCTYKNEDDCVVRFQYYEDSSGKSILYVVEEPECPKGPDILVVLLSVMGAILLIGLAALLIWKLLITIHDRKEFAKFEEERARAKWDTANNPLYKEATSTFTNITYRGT

[7] = biological target: αvβ5 integrin (Homo sapiens, UniProt P06756+P18084); conditions: low affinity; cited from earlier work
Sequence of αvβ5 integrin (P06756 31-889 limits assumed): as the sequence (P06756 31-889 limits assumed) above
Sequence of αvβ5 integrin (P06756 891-1048 partner limits assumed): as the sequence (P06756 891-1048 partner limits assumed) above
Sequence of αvβ5 integrin (P18084 24-799): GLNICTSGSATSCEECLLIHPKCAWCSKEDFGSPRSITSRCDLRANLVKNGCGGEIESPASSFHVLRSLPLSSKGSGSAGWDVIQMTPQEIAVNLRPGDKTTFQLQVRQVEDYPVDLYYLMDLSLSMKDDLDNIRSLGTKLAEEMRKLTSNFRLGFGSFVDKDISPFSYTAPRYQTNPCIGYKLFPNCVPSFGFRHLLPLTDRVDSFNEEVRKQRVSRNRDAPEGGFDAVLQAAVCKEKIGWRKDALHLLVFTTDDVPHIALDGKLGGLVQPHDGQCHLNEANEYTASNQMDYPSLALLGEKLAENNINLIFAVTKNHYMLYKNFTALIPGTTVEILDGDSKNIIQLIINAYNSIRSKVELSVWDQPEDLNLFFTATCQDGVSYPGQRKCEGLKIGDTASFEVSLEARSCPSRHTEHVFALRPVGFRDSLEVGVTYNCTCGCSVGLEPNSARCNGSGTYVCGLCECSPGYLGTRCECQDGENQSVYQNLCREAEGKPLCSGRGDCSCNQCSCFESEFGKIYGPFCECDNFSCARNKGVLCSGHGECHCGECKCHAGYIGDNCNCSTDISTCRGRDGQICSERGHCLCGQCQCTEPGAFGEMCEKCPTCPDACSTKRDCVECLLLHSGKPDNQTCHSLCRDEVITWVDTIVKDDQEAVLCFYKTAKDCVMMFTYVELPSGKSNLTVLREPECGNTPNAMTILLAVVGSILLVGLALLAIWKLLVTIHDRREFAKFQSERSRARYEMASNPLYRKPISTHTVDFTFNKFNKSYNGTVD

[8] = biological target: αIIBβ3 integrin (Homo sapiens, UniProt P05106+P08514); conditions: low affinity; cited from earlier work
Sequence of αIIBβ3 integrin (P08514 32-887 limits assumed): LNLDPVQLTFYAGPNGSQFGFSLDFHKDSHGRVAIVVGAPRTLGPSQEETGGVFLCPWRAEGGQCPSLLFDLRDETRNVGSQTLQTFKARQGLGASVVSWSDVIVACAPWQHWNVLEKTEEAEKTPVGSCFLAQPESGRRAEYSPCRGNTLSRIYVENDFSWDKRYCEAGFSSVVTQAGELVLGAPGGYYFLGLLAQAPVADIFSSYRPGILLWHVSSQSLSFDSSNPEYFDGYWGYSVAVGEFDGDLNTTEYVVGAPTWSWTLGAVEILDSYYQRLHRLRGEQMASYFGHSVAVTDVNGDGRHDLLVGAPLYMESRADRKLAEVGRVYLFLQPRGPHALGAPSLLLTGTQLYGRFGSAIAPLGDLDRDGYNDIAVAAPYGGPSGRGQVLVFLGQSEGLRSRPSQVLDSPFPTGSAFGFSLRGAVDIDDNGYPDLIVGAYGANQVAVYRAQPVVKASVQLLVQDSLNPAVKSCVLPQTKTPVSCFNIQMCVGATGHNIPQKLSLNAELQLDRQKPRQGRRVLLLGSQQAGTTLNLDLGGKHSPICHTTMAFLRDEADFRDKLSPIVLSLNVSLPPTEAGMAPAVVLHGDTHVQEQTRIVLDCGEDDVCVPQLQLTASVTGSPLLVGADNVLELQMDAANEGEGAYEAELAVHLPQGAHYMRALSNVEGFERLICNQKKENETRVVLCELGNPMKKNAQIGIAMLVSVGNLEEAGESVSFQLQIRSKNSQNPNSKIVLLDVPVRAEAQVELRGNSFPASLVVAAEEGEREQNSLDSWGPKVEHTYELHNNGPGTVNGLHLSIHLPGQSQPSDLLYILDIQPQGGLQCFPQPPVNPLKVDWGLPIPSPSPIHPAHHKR
Sequence of αIIBβ3 integrin (P08514 891-1039 partner limits assumed): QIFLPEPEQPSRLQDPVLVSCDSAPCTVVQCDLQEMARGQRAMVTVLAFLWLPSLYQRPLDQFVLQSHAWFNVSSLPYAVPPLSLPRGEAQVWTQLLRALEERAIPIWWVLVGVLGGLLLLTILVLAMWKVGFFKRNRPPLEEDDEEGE
Sequence of αIIBβ3 integrin (P05106 27-788): as the sequence (P05106 27-788) above

## C2-12P3A: literature MMP-13 peptide substrate, P4-P3' G A L G L S L (SEQ ID NO: 26) (GALGLSL; test peptide substrate) [Sample C2-12P3A]
[1]
  Selectivity (kcat/Km ratio for MMP-13 to MMP-x), MMP-1: 8.3
[2]
  Selectivity (kcat/Km ratio for MMP-13 to MMP-x), MMP-9: 4.6
[3]
  Selectivity (kcat/Km ratio for MMP-13 to MMP-x), MMP-3: 14

## C2-22: literature MMP-13 peptide substrate, P4-P4' G P R P F N Y L (SEQ ID NO: 24) (GPRPFNYL; test peptide substrate) [Sample C2-22]
[1]
  Selectivity (kcat/Km ratio for MMP-13 to MMP-x), MMP-1: 180
[2]
  Selectivity (kcat/Km ratio for MMP-13 to MMP-x), MMP-9: 21
[3]
  Selectivity (kcat/Km ratio for MMP-13 to MMP-x), MMP-3: 7.9

## C3-16: literature MMP-13 peptide substrate, P4-P4' G P K G V Y S L (SEQ ID NO: 27) (GPKGVYSL; test peptide substrate) [Sample C3-16]
[1]
  Selectivity (kcat/Km ratio for MMP-13 to MMP-x), MMP-1: 5500
[2]
  Selectivity (kcat/Km ratio for MMP-13 to MMP-x), MMP-9: 2.2
[3]
  Selectivity (kcat/Km ratio for MMP-13 to MMP-x), MMP-3: 3600

## C5-27: literature MMP-13 peptide substrate, P4-P4' G P F G F K S L (SEQ ID NO: 25) (GPFGFKSL; test peptide substrate) [Sample C5-27]
[1]
  Selectivity (kcat/Km ratio for MMP-13 to MMP-x), MMP-1: 2900
[2]
  Selectivity (kcat/Km ratio for MMP-13 to MMP-x), MMP-9: 4.8
[3]
  Selectivity (kcat/Km ratio for MMP-13 to MMP-x), MMP-3: 250

## CGGNGEPRGDTYRAY (15-mer bone sialopeptide sequence; bsp-RGD(15))
[4]; grafted on IPN
  bsp-RGD(15) surface density needed to support proliferation of NSCs: About 10 pmol·cm^−2

## CGGNGEPRGETYRAY (bone sialopeptide sequence; bsp-RGE(15))
[4]; proliferating or differentiating media conditions
  NSC adhesion / attachment: did not support attachment

## CP: literature MMP-13 peptide substrate, P4-P4' G P L G M R G L (SEQ ID NO: 23) (GPLGMRGL; test peptide substrate)
[1]
  Selectivity (kcat/Km ratio for MMP-13 to MMP-x), MMP-1: 820
[2]
  Selectivity (kcat/Km ratio for MMP-13 to MMP-x), MMP-9: 11
[3]
  Selectivity (kcat/Km ratio for MMP-13 to MMP-x), MMP-3: 1300

## CSRARKQAASIKVAVSADR (lam-IKVAV(19) peptide)
[4]; proliferating media (bFGF)
  NSC proliferation: did not enhance either cell proliferation or differentiation
[5]
  NSC differentiation into neural lineages: did not enhance either cell proliferation or differentiation

## H-Glu[cyclo (Arg-Gly-Asp-D-Phe-Lys)]2 [bicyclic RGD peptide reported by Janssen et al]
[6]
  IC50: 0.9 nM
[7]
  IC50: 10 nM
[8]
  IC50: 10 nM

From patent US9415135B2, “Methods and compositions for stabilizing the myocardium” (The Regents of the University of California, priority 2002, dated 2016)
